Results from article PMC7954794, “Protein context shapes the specificity of SH3 domain-mediated interactions in vivo” (Nature Communications, 2021).

Test system: PPIs identified as affected by the SH3 domain deletions
Assay: Liquid DHFR-PCA low-throughput validation of PPIs affected by SH3 deletion (Fig. S1D-E)
Format: cell-based, Saccharomyces cerevisiae
Settings: label = prey, liquid DHFR-PCA, prey _1 = lost, _2 = gained in screen
In short: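 Yeast diploids from DHFR-PCA mating grown 48 h in synthetic complete MSG medium pH 6.0 with NAT and HPH, normalized to 1 OD and diluted to 0.1 OD in liquid PCA selection medium. Growth followed by OD every 15 min for 72 h at 30 °C.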

B1: YLR332W_1 (protein, UniProt P36027 26-376, looked up)
Cell wall integrity sensor …: QFFVQSSSSNSSAVSTARSSVSRVSSSSSILSSSMVSSSSADSSSLTSSTSSRSLVSHTSSSTSIASISFTSFSFSSDSSTSSSSSASSDSSSSSSFSISSTSATSESSTSSTQTSTSSSSSLSSTPSSSSSPSTITSAPSTSSTPSTTAYNQGSTITSIINGKTILSNHYTTVTYTPSATADSSNKSKSSGLSKKNRNIVIGCVVGIGVPLILVILALIYMFCIQSSRTDFIDSDGKVVTAYRANKFTKWWYMLLGKKVSDEYHSDSPLGGSASSAGGLDLDEADDVMEQSSLFDVRIRDSDSVLPNANTADHNNTNSGGEPINSSVASNDIIEEKFYDEQGNELSPRNY
Ratio (Deletedscore / WTscore) (bait CDC25): 0.4625 | Ratio (Deletedscore / WTscore) (bait NBP2): 0.9277

B2: YCR009C_1 (protein, UniProt P25343 1-265, looked up)
Reduced viability upon …: MSWEGFKKAINRAGHSVIIKNVDKTIDKEYDMEERRYKVLQRAGEALQKEAKGFLDSLRAVTASQTTIAEVISNLYDDSKYVAGGGYNVGNYYLQCVQDFDSETVKQLDGPLRETVLDPITKFSTYFKEIEEAIKKRDHKKQDFDAAKAKVRRLVDKPAKDASKLPRAEKELSLAKDIFENLNNQLKTELPQLVSLRVPYFDPSFEALIKIQLRFCTDGYTRLAQIQQYLDQQSRDDYANGLLDTKIEELLGQMTSLDICALGIK
Ratio (Deletedscore / WTscore) (bait LSB1): 0.9386 | Ratio (Deletedscore / WTscore) (bait LSB3): 0.7612 | Ratio (Deletedscore / WTscore) (bait MYO3): 0.6894 | Ratio (Deletedscore / WTscore) (bait MYO5): 0.8072

B3: YHR016C_1 (protein, UniProt P32793 1-468, looked up)
Protein YSC84: MGINNPIPRSLKSETKKAAKVLRSFVKPNQVFGADQVIPPYVLKRAKGLAIITVLKAGFLFSGRAGSGVIVARLKDGTWSAPSAIAMAGAGAGGMVGVELTDFVFILNSEEAVRSFSEFGTITLGGNVSVSAGPLGRSAEAAASASTGGVSAVFAYSKSKGLFAGVSVEGSAILERREANRKFYGDNCTSKMILSGRVKVPPAADPLLRILESRAFNFTRHDHDDNASGDDFYDDGQYSDNTSHYYDDIPDSFDSTDESSTRPNTRSSRRRGMSLGSRSRYDDDYDDDGYGRGRGYGDFDSEDEDYDYGRSPNRNSSRNRGPQIDRGTKPRANTRWEDDLYDRDTEYSRPNHSGRDYDNTRGNRRGYGRERGYSLGHGPTHPSNMSNVDDLSHKMSKTGLGNESTATNSATPTAVALYNFAGEQPGDLAFKKGDVITILKKSDSQNDWWTGRTNGKEGIFPANYVRVS
Ratio (Deletedscore / WTscore) (bait HOF1): 0.9486 | Ratio (Deletedscore / WTscore) (bait MYO5): 0.6586 | Ratio (Deletedscore / WTscore) (bait RVS167): 0.5834

B4: YLR144C_1 (protein, UniProt Q12168 1-779, looked up)
Glucan …: MCYSRQAIPPPVPNRPGGTTNRGPPPLPPRANVQPPVCSSENSSKPRENRVAGESLRTPSSSNPLADSQVNSDNIFQSPVLSNLKAPPSVFNKVQHPVPKPNIDDQSVDPLETNKFYTNMLLDDNTQPIWTHPYSIWFSRDPELFGLAANHTLASQRVFDTTTNPPRFYFNPTNIKSFVFKAREFVSSNDIKLEFRDMKHMSMCLLMSLSSSQFIEFPLVQGMGFVTAIYHDLGFELRSAVGFRSLERISVNERYGKYNIQLENNRNWILYLTSPDYSFPQDFQISLLDSNTIISSHKINGLICQLSADSVPSIDMAAGCYPVYCDLSGQTVDEHFTNYRFNYTVAGYSQSGTTLMYALPHHKAAFTPEMQEREIASSLDSTVKGLMTGYLTNSFDMQVQVPQELGFEPVALSLNKKADYSQEKLSKIREAAVQEVQLSDPQQESNIDSMYFSGKILAKYAWILYVTHYILHDENLTKELLSKLTIAMERFISNQQVLPLNYDVSWKGIISSGSSSQDFGNSYYNDHHFHYSYHVITAAIISLVDSDLSGVTNNSWLENNRDWVECLIRDYSGVDNDDPYFPQFRSFDWFNGHSWAKGLFPSGDGKDEESTSEDVNSCYAIKLWGLVTGNSKLTDIANLQLGIMRNVFQSYFLYESNNTVQPKEFIGNKVSGILFENKIDHATYFGMEPQYIHMIHAIPITSASSWVRTPNFVKEEWEEKMQPIIDQVNDGWKGIIMLNMALLDPKFSYDFFSQPDFNRNFLDNGQSLTWSLAYSGAFS
Ratio (Deletedscore / WTscore) (bait LSB1): 1.001 | Ratio (Deletedscore / WTscore) (bait LSB3): 0.9902 | Ratio (Deletedscore / WTscore) (bait PIN3): 0.9919

B5: YLR258W_2 (protein, UniProt P27472 1-705, looked up)
Glycogen [starch] synthase …: MSRDLQNHLLFETATEVANRVGGIYSVLKSKAPITVAQYKDHYHLIGPLNKATYQNEVDILDWKKPEAFSDEMRPVQHALQTMESRGVHFVYGRWLIEGAPKVILFDLDSVRGYSNEWKGDLWSLVGIPSPENDFETNDAILLGYTVAWFLGEVAHLDSQHAIVAHFHEWLAGVALPLCRKRRIDVVTIFTTHATLLGRYLCASGSFDFYNCLESVDVDHEAGRFGIYHRYCIERAAAHSADVFTTVSQITAFEAEHLLKRKPDGILPNGLNVIKFQAFHEFQNLHALKKEKINDFVRGHFHGCFDFDLDNTLYFFIAGRYEYKNKGADMFIEALARLNYRLKVSGSKKTVVAFIVMPAKNNSFTVEALKGQAEVRALENTVHEVTTSIGKRIFDHAIRYPHNGLTTELPTDLGELLKSSDKVMLKRRILALRRPEGQLPPIVTHNMVDDANDLILNKIRQVQLFNSPSDRVKMIFHPEFLNANNPILGLDYDEFVRGCHLGVFPSYYEPWGYTPAECTVMGVPSITTNVSGFGAYMEDLIETNQAKDYGIYIVDRRFKAPDESVEQLVDYMEEFVKKTRRQRINQRNRTERLSDLLDWKRMGLEYVKARQLALRRGYPDQFRELVGEELNDSNMDALAGGKKLKVARPLSVPGSPRDLRSNSTVYMTPGDLGTLQEVNNADDYFSLGVNPAADDDDDGPYADDS
Ratio (Deletedscore / WTscore) (bait ABP1): 1.221

B6: YNL084C_1 (protein, UniProt P39013 1-349, looked up)
Actin cytoskeleton-regulatory …: MPKLEQFEIKKYWQIFSGLKPIENKVNHDQVLPILYNSKLDSSVLNKIWFLADIDDDDNLDFEEFVICMRLIFDMVNKNISSVPDELPDWLIPGSKVNLIKERKKRKQIENADLPPKKEIKVDWYMSPDDLNQYEKIYNSCAKLTDGTITFNELSTKLSTKFFNISKTDLNKVWSLINPQNLPSIDRDPTFYFIHCLRQRNDLGAEIPASLPNSLAEVCNKKQLSYDLRSSQPPTKRKEEANEVDNLRDNGQNSSSDSSGSNVLSNEDSIKQKYASLTDDQVANMREQLEGLLNYKKSEKTQGGSKLSKRINIRSITDDLDNIEQQVEVLENYLNNKRHELQALQAEIN
Ratio (Deletedscore / WTscore) (bait LSB1): 0.7759 | Ratio (Deletedscore / WTscore) (bait LSB3): 0.8689 | Ratio (Deletedscore / WTscore) (bait MYO3): 0.5035 | Ratio (Deletedscore / WTscore) (bait MYO5): 0.7027

B7: YNL229C_1 (protein, UniProt P23202 2-354, looked up)
Transcriptional regulator URE2: MNNNGNQVSNLSNALRQVNIGNRNSNTTTDQSNINFEFSTGVNNNNNNNSSSNNNNVQNNNSGRNGSQNNDNENNIKNTLEQHRQQQQAFSDMSHVEYSRITKFFQEQPLEGYTLFSHRSAPNGFKVAIVLSELGFHYNTIFLDFNLGEHRAPEFVSVNPNARVPALIDHGMDNLSIWESGAILLHLVNKYYKETGNPLLWSDDLADQSQINAWLFFQTSGHAPMIGQALHFRYFHSQKIASAVERYTDEVRRVYGVVEMALAERREALVMELDTENAAAYSAGTTPMSQSRFFDYPVWLVGDKLTIADLAFVPWNNVVDRIGINIKIEFPEVYKWTKHMMRRPAVIKALRGE
Ratio (Deletedscore / WTscore) (bait LSB1): 1.043

B8: YGR037C_1 (protein, UniProt P31787 1-87, looked up)
Acyl-CoA-binding protein: MVSQLFEEKAKAVNELPTKPSTDELLELYALYKQATVGDNDKEKPGIFNMKDRYKWEAWENLKGKSQEDAEKEYIALVDQLIAKYSS
Ratio (Deletedscore / WTscore) (bait LSB1): 1.041

B9: YML016C_2 (protein, UniProt P26570 2-692, looked up)
Serine/threonine-protein …: GNSSSKSSKKDSHSNSSSRNPRPQVSRTETSHSVKSAKSNKSSRSRRSLPSSSTTNTNSNVPDPSTPSKPNLEVNHQRHSSHTNRYHFPSSSHSHSNSQNELLTTPSSSSTKRPSTSRRSSYNTKAAADLPPSMIQMEPKSPILKTNNSSTHVSKHKSSYSSTYYENALTDDDNDDKDNDISHTKRFSRSSNSRPSSIRSGSVSRRKSDVTHEEPNNGSYSSNNQENYLVQALTRSNSHASSLHSRKSSFGSDGNTAYSTPLNSPGLSKLTDHSGEYFTSNSTSSLNHHSSRDIYPSKHISNDDDIENSSQLSNIHASMENVNDKNNNITDSKKDPNEEFNDIMQSSGNKNAPKKFKKPIDIDETIQKLLDAGYAAKRTKNVCLKNNEILQICIKAREIFLSQPSLLELSPPVKIVGDVHGQYGDLLRLFTKCGFPPSSNYLFLGDYVDRGKQSLETILLLFCYKIKYPENFFLLRGNHECANVTRVYGFYDECKRRCNIKIWKTFIDTFNTLPLAAIVAGKIFCVHGGLSPVLNSMDEIRHVVRPTDVPDFGLINDLLWSDPTDSPNEWEDNERGVSYCYNKVAINKFLNKFGFDLVCRAHMVVEDGYEFFNDRSLVTVFSAPNYCGEFDNWGAVMSVSEGLLCSFELLDPLDSAALKQVMKKGRQERKLANQQQQMMETSITNDNESQQ
Ratio (Deletedscore / WTscore) (bait ABP1): 1.259 | Ratio (Deletedscore / WTscore) (bait BOI1): 1.203 | Ratio (Deletedscore / WTscore) (bait BZZ1-2): 1.516
